We go through 1 molecule from patent US20180312587A1 (ADURO BIOTECH HOLDINGS EUROPE B V, published 2018).

Assay in all cases: CELISA, CHO-K1 transfectants; average of two experiments
In assay [1] the target is T1, hSIRPβ1 transcript variant 3/hSIRPβL (human, UniProt Q5TFQ8 30-398).
T1 construct: also called human SIRPβL
The method, then: The binding specificity of antibodies hSIRPα.40A and hSIRPα.50A to hSIRPα were compared in a CELISA format. In short, CHO-K1 cells were transiently transfected with hSIRPαV1, hSIRPαV2, hSIRPβ1, hSIRPβL, and hSIRPγ cDNAs. Subsequently, hSIRPα binding was assessed by CELISA using CHO-K1.hSIRPαV1, CHO-K1.hSIRPαV2, CHO-K1.hSIRPβ1, CHO-K1.hSIRPβL, and CHO-K1.hSIRPγ cells. Detection of bound antibody was done with goat-anti-mouse IgG-HRP (Southern Biotech).

Assay [2] concerns the target T2, hSIRPαV3 (NA07056_V3) (human, UniProt P78324 31-504).
T2 construct: also called human SIRPαV3
The method, then: (§1) The binding specificity of antibody hSIRPα.50A to hSIRPα was compared antibody KWAR23 (Canadian Patent 2939293 A1), in a CELISA format. CHO-K1 cells were transiently transfected with hSIRPαV1, hSIRPαV2, hSIRPβ1, and hSIRPγ (GenBank accession: NM_018556.3) (SEQ ID NO: 39) cDNAs. Subsequently, hSIRPα binding was assessed by CELISA using CHO-K1.hSIRPαV1, CHO-K1.hSIRPαV2, CHO-K1.hSIRPβ1, and CHO-K1.hSIRPγ cells. Detection of bound antibody was performed with goat-anti-mouse IgG-HRP (Southern Biotech) for mouse antibodies including hSIRPα.50A and control antibodies or, alternatively, with goat-anti-human IgG-HRP conjugate (Jackson Immuno Research) for the KWAR23 antibody. KWAR23 (SEQ ID NO: 130; SEQ ID NO: 131) was expressed as a chimeric human IgG4 kappa antibody in CHO cells. As shown in FIG. 2 and the following Table 9, KWAR23 antibody cross-reacts with all members of the SIRP receptor family tested: it binds to hSIRPαV1, hSIRPαV2, hSIRPβ1, and hSIRPγ.
(§2) In addition, the specificity of hSIRPα.50A for all known of hSIRPα alleles (allelic variants as described by Takenaka et al., 2007, Nat Immunol. 8:1313-1323) was further investigated by CELISA using the same strategy as above. To this end, hSIRPα.50A binding was assessed using CHO-K1 cells that were transiently transfected with cDNAs encoding full length hSIRPαV1, hSIRPαV2, hSIRPαV3 (NA07056_V3) (SEQ ID NO: 43), hSIRPαV4 (NA11832_V4) (SEQ ID NO: 45), hSIRPαV5 (NA18502_V5) (SEQ ID NO: 47), hSIRPαV6 (NA18507_V6) (SEQ ID NO: 49), hSIRPαV8 (NA18570_V8) (SEQ ID NO: 51), and hSIRPαV9 (NA18943_V9) (SEQ ID NO: 53).

In assay [3] the target is T3, hSIRPαV9 (NA18943_V9) (human, UniProt P78324 31-504).
T3 construct: also called human SIRPαV9
The method, then:
as §1, §2

In assay [4] the target is T4, hSIRPαV8 (NA18570_V8) (human, UniProt P78324 31-504).
T4 construct: also called human SIRPαV8
The protocol:
as §1, §2

Assay [5] concerns the target T5, hSIRPαV5 (NA18502_V5) (human, UniProt P78324 31-504).
T5 construct: also called human SIRPαV5
The protocol:
as §1, §2

Assay [6] concerns the target T6, human SIRPα variant 2 (human, UniProt P78324 31-504).
T6 construct: full length ORF on transfected CHO-K1 cells; also called hSIRPαV2; SIRPαV2
The method, then: as §1, §2

In assay [7] the target is T7, human SIRPα variant 1 (human, UniProt P78324 31-504).
T7 construct: full length ORF on transfected CHO-K1 or HEK293 cells; entry includes the signal peptide; also called hSIRPαV1; SIRPαV1
The protocol:
as §1, §2

Assay [8] has as its target T8, hSIRPαV6 (NA18507_V6) (human, UniProt P78324 31-504).
T8 construct: also called human SIRPαV6
The method, then:
as §1, §2

Assay [9] has as its target T9, hSIRPαV4 (NA11832_V4) (human, UniProt P78324 31-504).
T9 construct: also called human SIRPαV4
T9 chain: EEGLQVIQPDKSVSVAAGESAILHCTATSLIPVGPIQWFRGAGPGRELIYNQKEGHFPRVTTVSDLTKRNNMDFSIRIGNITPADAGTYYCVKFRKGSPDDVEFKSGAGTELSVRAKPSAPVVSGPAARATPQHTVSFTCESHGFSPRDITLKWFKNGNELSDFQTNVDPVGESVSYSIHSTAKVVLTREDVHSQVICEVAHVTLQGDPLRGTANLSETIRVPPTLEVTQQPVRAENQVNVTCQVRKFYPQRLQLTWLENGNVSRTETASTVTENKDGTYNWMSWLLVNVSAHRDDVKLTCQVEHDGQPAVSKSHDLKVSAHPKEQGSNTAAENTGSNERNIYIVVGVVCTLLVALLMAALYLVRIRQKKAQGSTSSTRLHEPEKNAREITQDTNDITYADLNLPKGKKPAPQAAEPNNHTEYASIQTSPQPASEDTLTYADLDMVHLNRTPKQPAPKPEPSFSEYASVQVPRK
The method, then: as §1, §2

T4 sequence (P78324 other isoform, or with tags, fused parts or gaps limits assumed): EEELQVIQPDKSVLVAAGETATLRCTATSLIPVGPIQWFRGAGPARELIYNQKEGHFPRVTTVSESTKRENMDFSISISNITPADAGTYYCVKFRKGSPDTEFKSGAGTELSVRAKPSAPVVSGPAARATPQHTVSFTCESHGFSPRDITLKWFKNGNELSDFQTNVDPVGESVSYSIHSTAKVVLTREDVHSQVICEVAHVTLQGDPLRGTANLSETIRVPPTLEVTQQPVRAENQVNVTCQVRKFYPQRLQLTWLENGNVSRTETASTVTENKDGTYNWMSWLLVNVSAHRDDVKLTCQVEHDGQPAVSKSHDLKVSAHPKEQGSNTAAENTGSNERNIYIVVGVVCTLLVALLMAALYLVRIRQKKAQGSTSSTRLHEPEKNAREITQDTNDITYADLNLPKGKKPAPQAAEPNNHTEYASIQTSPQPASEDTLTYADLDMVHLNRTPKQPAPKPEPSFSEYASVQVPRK
T3 sequence (P78324 31-504 G109S limits assumed): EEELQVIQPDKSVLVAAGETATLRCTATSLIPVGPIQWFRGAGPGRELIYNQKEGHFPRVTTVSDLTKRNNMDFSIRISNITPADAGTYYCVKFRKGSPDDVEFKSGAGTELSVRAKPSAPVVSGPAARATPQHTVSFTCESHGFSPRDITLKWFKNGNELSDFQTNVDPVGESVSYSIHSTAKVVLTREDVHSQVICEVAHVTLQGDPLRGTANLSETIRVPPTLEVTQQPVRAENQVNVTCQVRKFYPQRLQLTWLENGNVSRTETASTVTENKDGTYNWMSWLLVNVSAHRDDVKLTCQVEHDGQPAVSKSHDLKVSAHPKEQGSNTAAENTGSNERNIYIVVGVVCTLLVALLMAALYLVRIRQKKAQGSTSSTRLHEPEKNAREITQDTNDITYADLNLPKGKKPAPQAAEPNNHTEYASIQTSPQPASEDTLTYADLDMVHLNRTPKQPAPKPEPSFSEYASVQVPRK
T8 sequence (P78324 31-504 S105P limits assumed): as the sequence (P78324 31-504 G109S limits assumed) above, with S75P, S79G counted along it
T2 sequence (P78324 other isoform, or with tags, fused parts or gaps limits assumed): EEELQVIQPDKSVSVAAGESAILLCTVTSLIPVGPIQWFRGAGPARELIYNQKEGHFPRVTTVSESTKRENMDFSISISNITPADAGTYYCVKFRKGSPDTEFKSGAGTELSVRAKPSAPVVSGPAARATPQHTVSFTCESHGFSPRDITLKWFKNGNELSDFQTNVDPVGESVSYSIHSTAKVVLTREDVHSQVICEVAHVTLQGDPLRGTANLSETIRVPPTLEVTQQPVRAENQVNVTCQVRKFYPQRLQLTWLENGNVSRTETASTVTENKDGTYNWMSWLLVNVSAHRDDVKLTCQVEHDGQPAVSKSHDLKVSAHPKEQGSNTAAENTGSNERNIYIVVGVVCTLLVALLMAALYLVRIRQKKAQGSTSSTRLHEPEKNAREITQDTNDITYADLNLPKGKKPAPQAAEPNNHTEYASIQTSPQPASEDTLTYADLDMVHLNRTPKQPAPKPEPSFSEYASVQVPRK
T7 sequence (P78324 31-504 limits assumed, change not shown): as the sequence (P78324 31-504 G109S limits assumed) above, with S79G counted along it
T1 sequence (Q5TFQ8 30-398 limits assumed, change not shown): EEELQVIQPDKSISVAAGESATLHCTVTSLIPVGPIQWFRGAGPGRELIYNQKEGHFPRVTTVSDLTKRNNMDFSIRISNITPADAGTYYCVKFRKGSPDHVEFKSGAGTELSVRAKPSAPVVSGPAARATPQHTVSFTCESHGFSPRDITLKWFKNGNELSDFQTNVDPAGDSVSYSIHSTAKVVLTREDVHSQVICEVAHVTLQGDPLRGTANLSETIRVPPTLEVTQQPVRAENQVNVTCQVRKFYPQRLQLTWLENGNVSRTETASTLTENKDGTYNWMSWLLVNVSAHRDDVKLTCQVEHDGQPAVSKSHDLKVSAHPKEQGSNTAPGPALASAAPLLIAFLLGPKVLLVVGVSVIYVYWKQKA
T5 sequence (P78324 other isoform, or with tags, fused parts or gaps limits assumed): as the sequence (P78324 31-504 G109S limits assumed) above, with S12F, S79G counted along it
T6 sequence (P78324 other isoform, or with tags, fused parts or gaps mutant limits assumed): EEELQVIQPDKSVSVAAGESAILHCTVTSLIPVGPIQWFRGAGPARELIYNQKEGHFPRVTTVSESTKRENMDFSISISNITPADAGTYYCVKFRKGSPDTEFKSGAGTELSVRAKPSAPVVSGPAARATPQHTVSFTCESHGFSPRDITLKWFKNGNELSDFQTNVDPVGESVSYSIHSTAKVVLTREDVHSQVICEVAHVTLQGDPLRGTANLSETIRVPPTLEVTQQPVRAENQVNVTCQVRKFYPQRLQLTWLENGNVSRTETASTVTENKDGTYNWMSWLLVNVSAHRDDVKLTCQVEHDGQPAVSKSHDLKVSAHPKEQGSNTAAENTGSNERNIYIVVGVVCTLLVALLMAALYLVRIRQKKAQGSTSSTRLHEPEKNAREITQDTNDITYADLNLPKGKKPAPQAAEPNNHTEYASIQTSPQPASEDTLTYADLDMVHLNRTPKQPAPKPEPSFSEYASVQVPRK

B1: hSIRPα.50A (antibody, V domains shown)
VH: QVQLQQSGPELVKPGASVRISCKASGFTFTNYYIHWVKQRPGQGLEWIGWIYPGNVNTKYNEKFKAKATLTADKSSTTAYMQLSSLASEDSAVYFCARPTIIATDFDVWGAGTTVTVSS
VL: DIVMTQSHKFMSTSVGDRVNITCKASQGVGTAVGWYQQKPGQSPRLLIYWASTRHTGVPDRFTGSGSGTDFSLAISNVQSEDLADYFCQQYSTYPFTFGGGTNLEIK
notes: light chain constant domain not tied; also called mouse hSIRPα.50A; hSIRPα.50A.mIgG1
Broadly, the EC50 is the concentration at which the effect is half-maximal. A low value points to an effect from little substance. As for B1, the EC50 in [1] came out at 632 pM; in assay [2], 688 pM; in assay [3] it was 733 pM; in assay [4] it was 644 pM; in [5], 765 pM; in [6], 665 pM. Also, the EC50 is 936 pM in assay [7], 954 pM in assay [8] and 824 pM in assay [9].
